Assay results: article PMC4861126

Molecular target: Rap1 preloaded with mGppNHp (GDI assay) (Dictyostelium) (UniProt P18613)
Experiment: GDI (guanine nucleotide dissociation inhibition) assay, fluorescence; mGppNHp labelled G-protein with indicated amounts of RA-TalB, 200 fold excess of GppNHp, 25 °C; 50 mM Tris-HCl pH 7.5, 5 mM MgCl2, 50 mM NaCl, 5 mM DTE; Kd from dependence of kobs on RA-TalB concentration

UniProt P18613, sequence (P18613 whole entry): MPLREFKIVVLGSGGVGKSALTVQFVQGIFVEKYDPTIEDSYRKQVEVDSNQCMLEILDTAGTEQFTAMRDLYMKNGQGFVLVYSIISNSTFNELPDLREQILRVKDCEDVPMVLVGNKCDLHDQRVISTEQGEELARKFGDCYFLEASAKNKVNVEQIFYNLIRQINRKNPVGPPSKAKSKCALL

Kd: 19.9 µM
B1: Dictyostelium RA-TalB domain (residues 1-122) (domain or fragment)
chain: MSLTLKIQIVRDKQVKAMKFSPTQTVAEVCAQVREKINETSGDDHGLFQPGIDAKRPSRWLKMDKTLQFYDLKINDELDYKKKHRPLKVRLMDETVKTMLVDDSLTAGEILEIIGKRIGIKN
